In PMC2837123:

Biological target: full-length wild type prototype foamy virus (PFV) integrase (prototype foamy virus (PFV))
Assay: crystal structure

“full-length wild type prototype foamy virus (PFV) integrase (enzyme)” was tested, and the stoichiometry N was 4.
